The target of this experiment is T1, SipD (residues 39-343, C244S) (Salmonella typhimurium strain SL1344, UniProt Q56026 39-343, C244S).
T1 sequence: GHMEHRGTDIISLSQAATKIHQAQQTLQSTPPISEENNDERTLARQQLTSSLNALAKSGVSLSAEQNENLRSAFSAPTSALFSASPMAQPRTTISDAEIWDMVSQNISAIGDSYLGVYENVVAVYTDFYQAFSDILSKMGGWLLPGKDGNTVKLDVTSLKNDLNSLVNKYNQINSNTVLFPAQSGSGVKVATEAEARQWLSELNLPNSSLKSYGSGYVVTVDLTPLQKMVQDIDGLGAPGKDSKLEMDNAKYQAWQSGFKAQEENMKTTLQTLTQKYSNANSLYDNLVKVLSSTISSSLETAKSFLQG
As to the kind of experiment: NMR paramagnetic relaxation enhancement.

Numbering of substitutions follows the chain as printed. Names and notes keep the numbering of the source.

B1: SipB^82-312 D207C, MTSL spin-labeled (domain or fragment)
chain: EGQLTLLLGKLMTLLGDVSLSQLESRLAVWQAMIESQKEMGIQVSKEFQTALGEAQEATDLYEASIKKTDTAKSVYDAATKKLTQAQNKLQSLDPADPGYAQAEAAVEQAGKEATEAKEALDKATCATVKAGTDAKAKAEKADNILTKFQGTANAASQNQVSQGEQDNLSNVARLTMLMAMFIEIVGKNTEESLQNDLALFNALQEGRQAEMEKKSAEFQEETRKAEETNR
modifications: MTSL nitroxide spin label on the engineered cysteine at 207
Turning to B1, the binding result is given as “binds”.

B2: SipB^82-312 Lys-211 cysteine mutant, MTSL spin-labeled (domain or fragment)
chain: B1 chain with C126D, K130C
modifications: MTSL nitroxide spin label on the engineered cysteine at 211
On to B2, for which the binding result is on record as “binds”.

B3: SipB^82-312 Asn-283 cysteine mutant, MTSL spin-labeled (domain or fragment)
chain: B1 chain with C126D, N202C
modifications: MTSL nitroxide spin label on the engineered cysteine at 283
B3: the binding result was “binds”.

The values are drawn from article PMC4918631 (Chembiochem : a European journal of chemical biology, 2016).
